± gives the standard deviation of the averaged measurements.
Each sequence was assayed on ATP (assay: switch fluorescence ratio, 500 uM ATP over buffer (Cy3 cluster intensity, sum of 5 cycles each) (fold (ratio)); higher = stronger signal-on switching upon ATP binding; sequences stand for … in TCGTCGGCAGCGTCAGATGTGTATAAGAGACAGTTTTTTTTTTTTTTTTTTTTTTTTT…TC). Details: aptamer strand: ATP DNA aptamer (quencher-CACCTGGGGGAGTATTGCGGAGGAAGG + anchor), 100 nM annealed; ATP concentration: 500 uM.
Procedure, shortened: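 The fluorescence ratio divides summed target-cycle Cy3 intensity by summed buffer-cycle Cy3 intensity for each cluster and is averaged per switch-domain sequence. Cy3-labelled switching-strand clusters on a modified Illumina MiSeq flow-cell were annealed to 100 nM quencher-labelled ATP aptamer, then imaged in selection buffer and again after 15 min with 500 uM ATP at 22 °C. Five such cycles were run, with NaOH stripping and re-annealing between them, and clusters outside 100-1000 RFU were excluded.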
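Further: ATP exposure 15 min at 22 °C before imaging.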

| Sequence | switch fluorescence ratio |
| --- | --- |
| GCAATATGCA | 1.03 ± 0.05 |
| GCAATATTTC | 2.31 ± 0.35 |
| GCAATCGGGA | 1.2 ± 0.087 |
| GCAATTTGGT | 1.03 ± 0.02 |
| GCAATTTTTG | 1.002 ± 0.0066 |
| GCACACAAAA | 1.05 ± 0.012 |
| GCACATTGCT | 1.02 ± 0.013 |
| GCACCAATT | 1.06 ± 0.072 |
| GCACCATAGC | 1.06 ± 0.011 |
| GCACCTCAAT | 1.25 ± 0.037 |
| GCACGATGGT | 0.972 ± 0.01 |
| GCACGGGCAC | 1.18 ± 0.18 |
| GCACTAGGGA | 0.9908 ± 0.0062 |
| GCACTTTTCG | 1.01 ± 0.025 |
| GCAGAATATT | 0.998 ± 0.029 |
| GCAGACGGTG | 1.05 ± 0.013 |
| GCAGATGATC | 1.027 ± 0.0014 |
| GCAGATGCCT | 1 ± 0.023 |
| GCAGATTGGC | 1.034 ± 0.01 |
| GCAGATTTGG | 0.978 ± 0.026 |
| GCAGCGGACT | 1.29 ± 0.042 |
| GCAGCGGCTG | 0.994 ± 0.014 |
| GCAGCGGGGC | 1.28 ± 0.038 |
| GCAGCTGGCA | 0.984 ± 0.017 |
| GCAGGAAAAC | 1.04 ± 0.018 |

| Sequence | switch fluorescence ratio |
| --- | --- |
| GCAGGAAGAG | 1.0184 ± 0.00041 |
| GCAGGAAGGC | 1.089 ± 0.0071 |
| GCAGGACATA | 1.06 ± 0.027 |
| GCAGGACGGA | 1.03 ± 0.04 |
| GCAGGAGCAT | 1.03 ± 0.052 |
| GCAGGCACGG | 0.976 ± 0.028 |
| GCAGGGAGAG | 0.964 ± 0.022 |
| GCAGGGCGGG | 0.99 ± 0.011 |
| GCAGGGGAGG | 1 ± 0.036 |
| GCAGGGGGTA | 0.999 ± 0.027 |
| GCAGGGGTTC | 1.16 ± 0.15 |
| GCAGGTGTTC | 1.14 ± 0.02 |
| GCAGTACGGG | 1.42 ± 0.26 |
| GCAGTGGGTG | 0.998 ± 0.012 |
| GCAGTGTCCA | 1.01 ± 0.032 |
| GCAGTGTGCG | 0.985 ± 0.025 |
| GCAGTTGAGT | 1.01 ± 0.017 |
| GCAGTTTGTT | 0.978 ± 0.019 |
| GCATAACAGG | 1.04 ± 0.045 |
| GCATAAGATG | 1 ± 0.024 |
| GCATAGCAAT | 1.054 ± 0.003 |
| GCATATGGTT | 0.988 ± 0.016 |
| GCATATTTGA | 0.981 ± 0.015 |
| GCATCATATG | 0.998 ± 0.028 |
| GCATCATGTT | 0.987 ± 0.044 |

| Sequence | switch fluorescence ratio |
| --- | --- |
| GCATCCGAAG | 1.274 ± 0.0035 |
| GCATCGCCAT | 1.02 ± 0.029 |
| GCATCGTCGG | 1.04 ± 0.058 |
| GCATCGTGCG | 1.01 ± 0.052 |
| GCATCTAAGC | 1.06 ± 0.043 |
| GCATCTCGCG | 1.01 ± 0.021 |
| GCATGAAAAC | 1.03 ± 0.031 |
| GCATGAGTGC | 1.07 ± 0.061 |
| GCATGATAAC | 1.04 ± 0.02 |
| GCATGATAAT | 1.004 ± 0.0013 |
| GCATGATATG | 1.01 ± 0.0088 |
| GCATGCAGGA | 1.01 ± 0.02 |
| GCATGCATTG | 0.97797 ± 0.0001 |
| GCATGCGCGC | 0.984 ± 0.012 |
| GCATGCTGGG | 1.04 ± 0.0064 |
| GCATGCTGTC | 0.983 ± 0.019 |
| GCATGGCTGC | 1.03 ± 0.036 |
| GCATGGCTTT | 1.01 ± 0.023 |
| GCATGGGGAT | 1.02 ± 0.051 |
| GCATGGGTAG | 0.982 ± 0.018 |
| GCATGTCGGA | 1.01 ± 0.039 |
| GCATGTGGGC | 0.967 ± 0.01 |
| GCATGTGTGG | 0.995 ± 0.065 |
| GCATTAAGAT | 1.02 ± 0.025 |
| GCATTAAGTG | 1 ± 0.024 |

| Sequence | switch fluorescence ratio |
| --- | --- |
| GCATTAATGG | 1.04 ± 0.051 |
| GCATTAGGAC | 1.24 ± 0.018 |
| GCATTAGGTT | 1.03 ± 0.019 |
| GCATTATAT | 1.03 ± 0.023 |
| GCATTATTAA | 1.01 ± 0.032 |
| GCATTCGGAT | 1.01 ± 0.014 |
| GCATTGAAGC | 0.995 ± 0.011 |
| GCATTGGTTT | 0.982 ± 0.011 |
| GCATTGTTTT | 0.96 ± 0.038 |
| GCATTTCAGG | 0.98822 ± 0.00033 |
| GCATTTGGCT | 1.027 ± 0.0064 |
| GCCAAAGGTG | 1.72 ± 0.12 |
| GCCAACGGGG | 1 ± 0.028 |
| GCCAATTTGC | 1.02 ± 0.07 |
| GCCAGATAGG | 0.9562 ± 0.0088 |
| GCCAGGGACG | 1.02 ± 0.028 |
| GCCAGTATCC | 0.997 ± 0.014 |
| GCCAGTTTGC | 0.998 ± 0.015 |
| GCCAGTTTGG | 0.9916 ± 0.0052 |
| GCCATCAAGA | 0.995 ± 0.062 |
| GCCATCGAAT | 1 ± 0.021 |
| GCCATGTTGA | 1.02 ± 0.0063 |
| GCCATTAGCA | 1.022 ± 0.005 |
| GCCATTGAGG | 0.9668 ± 0.0031 |
| GCCCATTTCT | 1.03 ± 0.039 |

Reference: the supplement of paper PMC10126150
